Experimental data taken from US9222143.

Target: CD11b/CD18 receptor on J774A.1 murine monocytes/macrophages (murine) (UniProt P05555)
Test: cell-based or functional assay

## CyaA/233OVA/K860R/AC- (from UniProt J7QLC0 1-1706)
  Lysis of J774A.1 cells (% of AC-): 72 % of AC-
